Among the data in patent publication CN115433279A (SUZHOU DIMA BIOTECHNOLOGY CO LTD, dated 2022) are binding result and OD450 values, retold here.

For test [1], the target named is T1, CD123全长蛋白 (细胞膜上CD123) (UniProt P26951 19-378, limits assumed).
T1 construct: whole, on cells; also called 天然细胞表面CD123蛋白
The test can be described thus: flow cytometry on Raji cells, antibody titration. Background: A flow cytometer gives signals particle by particle.

Test [2] addresses CD123 FC融合标签蛋白 (UniProt P26951). Put plainly: indirect ELISA, CD123 protein coated at 1 μg/ml, B cell clone supernatant.

T1 sequence (P26951 19-378 limits assumed): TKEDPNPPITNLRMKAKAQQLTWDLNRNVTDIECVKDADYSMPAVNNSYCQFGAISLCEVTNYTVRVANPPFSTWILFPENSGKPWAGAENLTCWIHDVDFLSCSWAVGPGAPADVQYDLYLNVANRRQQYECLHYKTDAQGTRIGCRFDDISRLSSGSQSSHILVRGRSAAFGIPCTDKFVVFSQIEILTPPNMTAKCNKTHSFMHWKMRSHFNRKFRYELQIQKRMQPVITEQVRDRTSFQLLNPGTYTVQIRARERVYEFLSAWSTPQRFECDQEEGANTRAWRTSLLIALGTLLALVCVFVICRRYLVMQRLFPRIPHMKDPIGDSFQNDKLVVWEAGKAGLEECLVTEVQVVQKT

B1: 命名为1E4的兔重组单克隆抗体 (antibody, V domains shown)
VH: QSLEESGGRLVTPGTPLTLTCTASGFSLSSYYMSWVRQAPGKGLEYIGIIYDSGSTWYANWAKGRFTISKTSTAVYLEITSPTTEDTATYFCARTGSIYYIWLDLWGQGTLVTVSS
VL: AAVLTQTPSPVSAAVGGSVTISCQSSQTIYKNNDLAWYQQKPGQPPKLLIYEASKLASGVPSRFSGSGSGTQFTLTISGVQCDDAATYYCLGGYDDDDDNTFGGGTEVVVK
notes: In the later assays it was recombinant antibody purified from 293 cells
For B1, the binding result in test [1] is given as “binds”. In addition, the OD450 in test [2] was 2.1 OD450.

B2: 命名为1E6的兔重组单克隆抗体 (antibody, V domains shown)
VH: QSVEESGGRLVTPGTPLTLACTVSGFDISSYSMSWVRQAPGKGLEWIGSGIIGGSTYYASWAKGRFTISKTSTTVDLKITSPTTEDTATYFCARFAGTSSTDYYDLWGQGTLVTVSS
VL: TQTPSSVEAAVGGTVTIKCQASQSIDSYLAWYQQKPGQPPKLLIYDTSTLASGVSSRFKGSGSGTQFTLTISDLECADAATYYCQNYWIITTFGFGGGTEVVVK
In turn, B2 came in with an OD450 in test [2] of 1.53 OD450.

B3: 命名为5D3的兔重组单克隆抗体 (antibody, V domains shown)
VH: GGAEGGLVKPGGSLELCCKASGFSLSNLRVNWVRQAPGKGLEWIGCIISDSSGTTSYASWVNGRFTLSRDIDQNTGCLQLNSLTVADTAMYYCASRVNITSYDLSLWGQGTLVTVSS
VL: AAVLTQTPSPVSAAVGGTVSISCQSSKSVYNNKWLSWFQQKPGQPPKLLIYSASTLASGVPSRFSGSGSGTDFTLTISDVQCDDAATYYCAGGYSGSSDTYSFGGGTEVVVK
In test [2], B3 displayed an OD450 of 1.77 OD450.

B4: 命名为1E5的兔重组单克隆抗体 (antibody, V domains shown)
VH: QSVKESAGGLFKPTDTLTLTCTASGFTISSNAITWVRQAPGNGLEWIGGIDSSGSAYYASWAKSRSTITRNTNLNTVTLKMTSLTAADTATYFCAGGSNIWGPGTLVTVSS
VL: DIVMTQTPSSVSAAVGGTVTIKCQASESIYSYLSWYQQKPGQPPKLLIYLASTLDSGVPSRFKGSGSGTQFTLTISDLECADAATYYCQSSYFSSGSSYGNTFGGGTEVVVK
Take B4: the binding result in test [1] is reported as “binds”. This molecule also yielded an OD450 in test [2] of 1.87 OD450.
